From patent US20250145711A1 (Janssen / Centocor, published 2025) come the findings set out here.

Broadly, the EC50 is the midpoint of the concentration-response curve. Low readings indicate higher potency in that assay, high ones lower potency in that assay. By Kd is commonly meant the constant that tells how readily two partners part at equilibrium.

Residue numbers refer to the chain shown, from its start.

In experiment [1] the target is T1, TRCW5 antigen (CD3δε-Fc-Avi) (biotinylated (site not stated)).
T1 construct: also called recombinant CD3
T1 sequence (chain, as listed by the source mutant limits assumed): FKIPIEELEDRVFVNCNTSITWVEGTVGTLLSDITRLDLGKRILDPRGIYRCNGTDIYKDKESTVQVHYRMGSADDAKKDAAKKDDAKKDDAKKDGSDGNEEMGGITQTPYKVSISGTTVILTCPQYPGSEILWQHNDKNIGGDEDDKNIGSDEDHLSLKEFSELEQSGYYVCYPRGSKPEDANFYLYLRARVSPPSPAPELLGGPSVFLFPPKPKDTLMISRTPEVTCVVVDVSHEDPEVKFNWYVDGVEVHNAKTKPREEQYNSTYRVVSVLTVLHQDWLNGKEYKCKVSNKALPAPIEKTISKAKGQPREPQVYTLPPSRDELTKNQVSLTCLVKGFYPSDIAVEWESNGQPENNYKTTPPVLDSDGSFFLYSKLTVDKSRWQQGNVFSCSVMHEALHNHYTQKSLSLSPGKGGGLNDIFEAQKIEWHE
Briefly: ELISA, E. coli scFv on biotinylated TRCW5. On the procedure: Briefly, DNA was transformed into an E. coli expression vector to generate scFv molecules having a C-terminal HA-tag, and cells were plated on 2×YT/Carb/2% Glucose grown overnight at 37 C. Colonies were picked and transferred 50 ul of overnight growth cultures to new plates containing 500 ul of 2×YT/Carb/0.1% Glucose, grown for 6-7 hr, and combined with 50 ul 2×YT medium containing 1×carbenicillin & 12×IPTG. Cultures were incubated with shaking ˜600 RPM 30° C. overnight. Streptavidin coated plates were bound with 50 μL of biotinylated TRCW5 antigen (CD3δε-Fc-Avi, SEQ ID NO: 39) at the concentrations indicated in the ELISA graph for 45 min at room temperature with shaking (FIG. 1, FIG. 3, FIG. 4) followed by washing 3× with 1×TBST. Plates were blocked with 200 ul 3% Milk in 1×TBST for ˜45 mins at room temperature followed by washing 3× with 1×TBST. E. coli cultures were harvested by centrifugation at […] for 10 mins 4° C. and 50 μL of supernatant was transferred into CD3-coated plates followed by incubation at 4 C for 45 min. Plates were washed 3× with 1×TBST. Bound scFv was detected with Chicken Polyclonal Anti-HA-HRP (ab1190) [1:1000] for ˜45 mins RT and luminescence detected with chemi-luminescent substrate.
Background: An ELISA detects its analyte on a solid surface through an enzyme-linked reagent.

Experiment [2] deals with T1, TRCW5 antigen (CD3δε-Fc-Avi). Briefly: ELISA after heat.
Experiment [3] addresses T2, human PSMA on prostate cancer cell lines (22RV1, C4-2B) (human, UniProt Q04609 1-750).
T2 construct: also called PSMA-expressing cell lines
Briefly: flow cytometry on 22RV1 cells. As for the experimental part:
(§1) 22RV1 and C4-2B cells were plated at 50,000 cells per well in 50 μl of assay medium (RPMI, 10% HI FBS) in V bottom plates. Serial dilutions of antibodies were prepared in assay medium with 50 μl of antibody dilutions added to the plates containing cells. The plates were incubated for 60 min at 37° C. at which time 100 μl of staining buffer (Becton Dickinson Cat #554657) was added to all wells of each plate. The plates were centrifuged at 300×G for 5 minutes and the medium was removed from the wells. 200 μl of staining buffer was added to all wells of each plate. The plates were centrifuged at 300× G for 5 minutes and the medium was removed from the wells. 50 μl of 2 μg/ml AlexaFluor647-labeled goat anti-human Fc was added to all wells of the plates and the plates were incubated for 30 minutes at 4° C. 150 μl of staining buffer was added to all wells of each plate. The plates were centrifuged at 300× G for 5 minutes and the medium was removed from the wells.
Background: Flow cytometry measures light scatter and fluorescence of single cells or particles in a stream.

In experiment [4] the target is T2, human PSMA on prostate cancer cell …. Briefly: flow cytometry on C4-2B cells. On the procedure:
as §1

Another experiment deals with T3, recombinant human PSMA (human, UniProt Q04609 44-750).
T3 construct: also called hu PSMA; prostate-specific membrane antigen
T3 sequence (Q04609 44-750 limits assumed): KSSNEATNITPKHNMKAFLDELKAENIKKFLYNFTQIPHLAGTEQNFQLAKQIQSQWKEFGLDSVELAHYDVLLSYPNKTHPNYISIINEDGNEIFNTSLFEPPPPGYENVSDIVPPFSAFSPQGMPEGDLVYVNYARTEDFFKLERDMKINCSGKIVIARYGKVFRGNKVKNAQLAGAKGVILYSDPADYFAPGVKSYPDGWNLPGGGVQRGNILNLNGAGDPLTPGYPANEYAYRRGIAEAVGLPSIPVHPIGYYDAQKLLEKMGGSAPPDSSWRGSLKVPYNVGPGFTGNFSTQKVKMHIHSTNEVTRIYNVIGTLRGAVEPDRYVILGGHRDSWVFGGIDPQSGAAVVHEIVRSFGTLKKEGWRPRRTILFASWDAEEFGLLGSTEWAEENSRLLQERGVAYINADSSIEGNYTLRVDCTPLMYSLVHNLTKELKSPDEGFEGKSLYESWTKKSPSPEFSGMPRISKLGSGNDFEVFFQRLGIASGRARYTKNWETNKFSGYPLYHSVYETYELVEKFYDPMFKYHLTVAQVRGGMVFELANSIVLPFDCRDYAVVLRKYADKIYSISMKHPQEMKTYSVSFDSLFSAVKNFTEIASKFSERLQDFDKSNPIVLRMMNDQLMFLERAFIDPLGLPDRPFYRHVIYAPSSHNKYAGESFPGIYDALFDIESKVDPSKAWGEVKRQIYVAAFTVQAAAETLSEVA
Briefly: SPR (Biacore 8K), antibody captured on anti-Fc, PSMA in solution. On the procedure:
The binding affinity of anti-PSMA to the recombinant human, cynomolgus or mouse PSMA was determined by surface plasmon resonance (SPR) using a Biacore 8K instrument\. […] The association and dissociation were monitored for 3 and 15 minutes, respectively, using a flow rate of 50 μL/min. Raw binding data was referenced by subtracting the analyte binding signals from blanks and analyzed using a 1:1 Langmuir binding model using the Biacore Insight evaluation software to obtain the kinetics which were used to calculate the binding affinity. The anti-PSMA were captured using an anti-human Fc antibody and the antigens were injected in solution.
(In general: In SPR one partner is held on a chip, and binding of the other changes the refractive index at the surface.)

T2 sequence (Q04609 whole entry): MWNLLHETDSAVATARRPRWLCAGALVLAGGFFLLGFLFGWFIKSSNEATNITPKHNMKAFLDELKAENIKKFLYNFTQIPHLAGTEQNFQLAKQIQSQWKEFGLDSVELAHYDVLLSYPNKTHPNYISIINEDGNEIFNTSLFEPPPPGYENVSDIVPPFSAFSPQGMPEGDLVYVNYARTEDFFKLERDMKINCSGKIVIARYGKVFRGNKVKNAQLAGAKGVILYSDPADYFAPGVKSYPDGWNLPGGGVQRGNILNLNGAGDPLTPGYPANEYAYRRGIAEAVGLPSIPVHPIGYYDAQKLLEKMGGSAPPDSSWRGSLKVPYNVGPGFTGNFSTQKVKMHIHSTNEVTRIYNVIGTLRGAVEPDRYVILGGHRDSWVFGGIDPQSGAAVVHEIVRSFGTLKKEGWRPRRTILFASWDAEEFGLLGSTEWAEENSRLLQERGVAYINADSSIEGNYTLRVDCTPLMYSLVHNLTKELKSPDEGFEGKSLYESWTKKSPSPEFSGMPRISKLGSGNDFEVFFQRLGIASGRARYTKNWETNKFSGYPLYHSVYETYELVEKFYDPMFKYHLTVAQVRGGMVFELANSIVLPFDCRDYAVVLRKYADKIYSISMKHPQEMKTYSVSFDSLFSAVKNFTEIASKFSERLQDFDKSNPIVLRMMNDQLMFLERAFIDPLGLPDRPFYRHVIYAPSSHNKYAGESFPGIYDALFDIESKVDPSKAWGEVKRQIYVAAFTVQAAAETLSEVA

B1: CD3B1135 (scFv)
scFv: EIVLTQSPATLSLSPGERATLSCSASSSVSYMNWYQQKPGTSPRRLIYDSSKLASGIPARFSGSGSGRDYTLTISSLEPEDFAVYYCQQWSRNPPTFGGGTKVEIKGGSEGKSSGSGSESKSTGGSQVQLVQSGAEVKKPGSSVKVSCKASGYTFTRSTMHWVRQAPGQGLEWMGYINPSSAYTNYNQKFQGRVTLTADKSTSTAYMELSSLRSEDTAVYYCARPQVHYDYNGFPYWGQGTLVTVSS
As to B1, the EC50 in experiment [1] was determined as 1.04 nM.

B2: CD3B1134 (scFv)
scFv: DIQLTQSPSSLSASVGDRVTITCSASSSVSYMNWYQQKPGTSPKRLIYDSSKLASGVPSRFSGSGSGTDYTLTISSLQPEDFATYYCQQWSRNPPTFGGGTKVEIKGGSEGKSSGSGSESKSTGGSEVQLVQSGAEVKKPGESLRISCKASGYTFTRSTMHWVRQMPGKGLEWMGYINPSSAYTNYNPSFQGHVTLSADKSISTAYLQWSSLKASDTAMYYCARPQVHYDYNGFPYWGQGTLVTVSS
On to B2, for which the EC50 in experiment [1] is about 0.0063 nM.

B3: CD3B1131 (scFv)
scFv: EVQLVQSGAEVKKPGESLRISCKASGYTFTRSTMHWVRQMPGKGLEWMGYINPSSAYTNYNPSFQGHVTLSADKSISTAYLQWSSLKASDTAMYYCARPQVHYDYNGFPYWGQGTLVTVSSGGSEGKSSGSGSESKSTGGSDIQLTQSPSSLSASVGDRVTITCSASSSVSYMNWYQQKPGTSPKRLIYDSSKLASGVPSRFSGSGSGTDYTLTISSLQPEDFATYYCQQWSRNPPTFGGGTKVEIK
notes: also called CD381131
In experiment [1], B3 displayed an EC50 of 1.14 nM.

B4: CD3B1130 (scFv)
scFv: QVQLVQSGAEVKKPGSSVKVSCKASGYTFTRSTMHWVRQAPGQGLEWMGYINPSSAYTNYNQKFQGRVTLTADKSTSTAYMELSSLRSEDTAVYYCARPQVHYDYNGFPYWGQGTLVTVSSGGSEGKSSGSGSESKSTGGSEIVLTQSPATLSLSPGERATLSCSASSSVSYMNWYQQKPGTSPRRLIYDSSKLASGIPARFSGSGSGRDYTLTISSLEPEDFAVYYCQQWSRNPPTFGGGTKVEIK
notes: also called IGHV1-69*02-IGHJ1-01 / IGKV3-11*02-IGKJ4-01 grafted construct, HL
With B4, in experiment [2], the “% Retained 55° C.” value turned out to be 90%, the “% Retained 60° C.” value came out at 11% and the “% Retained 65° C.” value was found to be 1%. In experiment [1], this molecule returned an EC50 of 0.747 nM.

B5: CD3B1129 (scFv)
scFv: QVQLVQSGAEVKKPGSSVKVSCKASGYTFTRSTMHWVRQAPGQGLEWMGYINPSSAYTNYNQKFQGRVTLTADKSTSTAYMELSSLRSEDTAVYYCARPQVHYDYNGFPYWGQGTLVTVSSGGSEGKSSGSGSESKSTGGSDIQLTQSPSSLSASVGDRVTITCSASSSVSYMNWYQQKPGTSPKRLIYDSSKLASGVPSRFSGSGSGTDYTLTISSLQPEDFATYYCQQWSRNPPTFGGGTKVEIK
Consider B5, for which, in experiment [1], the midpoint of the response, the EC50, lay at 0.712 nM.

B6: CD3B1132 (scFv)
scFv: EVQLVQSGAEVKKPGESLRISCKASGYTFTRSTMHWVRQMPGKGLEWMGYINPSSAYTNYNPSFQGHVTLSADKSISTAYLQWSSLKASDTAMYYCARPQVHYDYNGFPYWGQGTLVTVSSGGSEGKSSGSGSESKSTGGSEIVLTQSPATLSLSPGERATLSCSASSSVSYMNWYQQKPGTSPRRLIYDSSKLASGIPARFSGSGSGRDYTLTISSLEPEDFAVYYCQQWSRNPPTFGGGTKVEIK
Consider B6, for which the EC50 in experiment [1] is about 1.1 nM.

B7: PS3B933 (bispecific antibody, human IgG1, kappa, lambda, L234A L235A)
heavy 1: EVQLVESGGGLVKPGGSLRLSCAASGFTFSRYNMNWVRQAPGKGLEWVSSISTSSNYIYYADSVKGRFTFSRDNAKNSLDLQMSGLRAEDTAIYYCTRGWGPFDYWGQGTLVTVSSASTKGPSVFPLAPSSKSTSGGTAALGCLVKDYFPEPVTVSWNSGALTSGVHTFPAVLQSSGLYSLSSVVTVPSSSLGTQTYICNVNHKPSNTKVDKKVEPKSCDKTHTCPPCPAPEAAGGPSVFLFPPKPKDTLMISRTPEVTCVVVSVSHEDPEVKFNWYVDGVEVHNAKTKPREEQYNSTYRVVSVLTVLHQDWLNGKEYKCKVSNKALPAPIEKTISKAKGQPREPQVYTLPPSREEMTKNQVSLTCLVKGFYPSDIAVEWESNGQPENNYKTTPPVLDSDGSFLLYSKLTVDKSRWQQGNVFSCSVMHEALHNHYTQKSLSLSP
light 1: DIQMTQSPSSLSASVGDRVTITCRARQSIGTAIHWYQQKPGKAPKLLIKYASESISGVPSRFSGSGSGTDFTLTISSLQPEDFATYYCQQSGSWPYTFGQGTKLEIKRTVAAPSVFIFPPSDEQLKSGTASVVCLLNNFYPREAKVQWKVDNALQSGNSQESVTEQDSKDSTYSLSSTLTLSKADYEKHKVYACEVTHQGLSSPVTKSFNRGEC
heavy 2: EVQLVESGGGLVQPGGSLRLSCAASGFTFSSYAMSWVRQAPGKGLEWVSAISGGSGSTYYADSVKGRFTISRDNSKNTLYLQMNSLRAEDSAVYYCAKDGVGATPYYFDYWGQGTLVTVSSASTKGPSVFPLAPSSKSTSGGTAALGCLVKDYFPEPVTVSWNSGALTSGVHTFPAVLQSSGLYSLSSVVTVPSSSLGTQTYICNVNHKPSNTKVDKKVEPKSCDKTHTCPPCPAPEAAGGPSVFLFPPKPKDTLMISRTPEVTCVVVSVSHEDPEVKFNWYVDGVEVHNAKTKPREEQYNSTYRVVSVLTVLHQDWLNGKEYKCKVSNKALPAPIEKTISKAKGQPREPQVYTLPPSREEMTKNQVSLTCLVKGFYPSDIAVEWESNGQPENNYKTTPPVLDSDGSFFLYSRLTVDKSRWQQGNVFSCSVMHEALHNHYTQKSLSLSPG
light 2: QSVLTQPPSVSAAPGQKVTISCSGSSSNIGNNYVSWYQQLPGTAPKLLIYDNNKRPSGIPDRFSGSKSGTSATLGITGLQTGDEADYYCGTWDSSLSAYVFGTGTKVTVLGQPKAAPSVTLFPPSSEELQANKATLVCLISDFYPGAVTVAWKADSSPVKAGVETTTPSKQSNNKYAASSYLSLTPEQWKSHRSYSCQVTHEGSTVEKTVAPTECS
notes: FAB-A: CD3B2183 (CD3W245); FAB-B: PSMB897
With B7, the EC50 in experiment [3] and in experiment [4] was 60 nM each time. In addition, the Kd with recombinant human PSMA came to 1.44 nM.

B8: PS3B934 (bispecific antibody, human IgG1, kappa, lambda, L234A L235A)
heavy 1: B7 heavy 1
light 1: B7 light 1
heavy 2: B7 heavy 2 with S55I, Y80W, S91T
light 2: B7 light 2 with N31I, Y99V, T103G, V107L
notes: FAB-A: CD3B2183 (CD3W245); FAB-B: PSMB896
As to B8, the values for the EC50 in experiment [3] and in experiment [4] were 4.96 nM and 11 nM, respectively. In addition, in the experiment with recombinant human PSMA, the Kd was at most 0.0873 nM.

B9: PS3B935 (bispecific antibody, human IgG1, kappa, lambda, L234A L235A)
heavy 1: B7 heavy 1
light 1: B7 light 1
heavy 2: B7 heavy 2
light 2: B7 light 2 with N31I, Y99V, T103G, V107L
notes: FAB-A: CD3B2183 (CD3W245); FAB-B: PSMB898
With B9, the EC50 in experiment [3] was 39.5 nM; in experiment [4], 8.22 nM. Besides, the Kd with recombinant human PSMA is 0.454 nM.

B10: CD3B1133 (scFv)
scFv: DIQLTQSPSSLSASVGDRVTITCSASSSVSYMNWYQQKPGTSPKRLIYDSSKLASGVPSRFSGSGSGTDYTLTISSLQPEDFATYYCQQWSRNPPTFGGGTKVEIKGGSEGKSSGSGSESKSTGGSQVQLVQSGAEVKKPGSSVKVSCKASGYTFTRSTMHWVRQAPGQGLEWMGYINPSSAYTNYNQKFQGRVTLTADKSTSTAYMELSSLRSEDTAVYYCARPQVHYDYNGFPYWGQGTLVTVSS
The molecule B10 displayed an EC50 in experiment [1] of 0.958 nM.

B11: CD3B1128 (scFv)
scFv: QVVLTQSPAIMSAFPGEKVTMTCSASSSVSYMNWYQQKSGTSPKRWIYDSSKLASGVPARFSGSGSGTSYSLTISSMETEDAATYYCQQWSRNPPTFGGGTKLQITGGSEGKSSGSGSESKSTGGSQVQLQQSGAELARPGASVKMSCKASGYTFTRSTMHWVKQRPGQGLEWIGYINPSSAYTNYNQKFKDKATLTADKSSSTAYMQLSSLTSEDSAVYYCASPQVHYDYNGFPYWGQGTLVTVSA
notes: also called Murine LH; murine Cris-7 scFv (LH)
With B11, in experiment [2], the “% Retained 55° C.” value came out at 10%, the “% Retained 60° C.” value is 2% and the “% Retained 65° C.” value came out at 3%. In addition, in experiment [1], the EC50 is about 0.437 nM.
